According to IntAct's records for PubMed 25107275:

Biological target: snx9_human SNX9 (UniProt Q9Y5X1)
Sequence (Q9Y5X1 whole entry): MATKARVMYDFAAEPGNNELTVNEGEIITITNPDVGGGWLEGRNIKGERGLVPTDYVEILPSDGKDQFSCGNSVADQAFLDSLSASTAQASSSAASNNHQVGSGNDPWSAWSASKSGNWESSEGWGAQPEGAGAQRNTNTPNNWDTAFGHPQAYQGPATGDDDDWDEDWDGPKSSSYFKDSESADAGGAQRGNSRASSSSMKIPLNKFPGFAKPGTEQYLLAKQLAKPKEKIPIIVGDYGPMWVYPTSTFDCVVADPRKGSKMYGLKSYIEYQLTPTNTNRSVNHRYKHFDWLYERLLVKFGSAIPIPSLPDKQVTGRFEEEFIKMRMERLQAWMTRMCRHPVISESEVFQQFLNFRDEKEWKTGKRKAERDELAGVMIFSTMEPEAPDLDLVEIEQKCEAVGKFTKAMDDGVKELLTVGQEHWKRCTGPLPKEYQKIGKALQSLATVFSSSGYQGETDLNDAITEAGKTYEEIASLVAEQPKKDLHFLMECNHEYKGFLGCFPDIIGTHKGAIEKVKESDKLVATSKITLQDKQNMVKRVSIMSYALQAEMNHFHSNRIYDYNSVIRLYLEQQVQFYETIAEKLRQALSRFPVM

Inositol polyphosphate 5-phosphatase OCRL (Homo sapiens), Q01968 P177A;P178A;P181A, sequence (Q01968 whole entry P177A/P178A/P181A): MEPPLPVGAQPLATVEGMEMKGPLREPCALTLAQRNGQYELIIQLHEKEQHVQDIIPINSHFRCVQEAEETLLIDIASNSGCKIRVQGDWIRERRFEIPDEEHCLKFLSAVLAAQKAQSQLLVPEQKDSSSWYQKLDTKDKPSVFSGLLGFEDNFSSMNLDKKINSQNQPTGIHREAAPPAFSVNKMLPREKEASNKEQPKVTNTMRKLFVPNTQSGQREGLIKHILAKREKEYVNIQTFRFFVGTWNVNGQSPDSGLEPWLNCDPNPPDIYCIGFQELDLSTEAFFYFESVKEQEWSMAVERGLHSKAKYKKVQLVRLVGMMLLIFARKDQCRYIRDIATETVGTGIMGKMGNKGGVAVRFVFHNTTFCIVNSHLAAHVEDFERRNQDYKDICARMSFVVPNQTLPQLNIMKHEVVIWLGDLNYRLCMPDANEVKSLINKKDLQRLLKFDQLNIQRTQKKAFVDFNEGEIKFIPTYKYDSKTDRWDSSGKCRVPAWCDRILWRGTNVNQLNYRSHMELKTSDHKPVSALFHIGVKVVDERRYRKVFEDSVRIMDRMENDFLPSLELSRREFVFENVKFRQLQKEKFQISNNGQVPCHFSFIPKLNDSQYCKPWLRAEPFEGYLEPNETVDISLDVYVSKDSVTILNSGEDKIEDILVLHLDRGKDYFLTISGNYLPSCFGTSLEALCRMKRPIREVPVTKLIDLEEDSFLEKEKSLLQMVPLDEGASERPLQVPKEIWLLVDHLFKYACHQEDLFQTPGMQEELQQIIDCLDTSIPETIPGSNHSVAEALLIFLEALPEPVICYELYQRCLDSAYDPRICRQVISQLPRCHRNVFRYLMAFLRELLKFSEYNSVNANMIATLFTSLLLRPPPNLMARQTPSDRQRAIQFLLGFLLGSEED

Q: Which “effect of a mutation on the interaction” value does the source give for “Inositol polyphosphate 5-phosphatase OCRL (Homo sapiens), Q01968 P177A;P178A;P181A” here?
A: disrupting interaction
